From patent US20250332297A1, “DLL3-SPECIFIC BINDING CONSTRUCTS AND THEIR USE IN RADIOTHERAPY” (MOLECULAR PARTNERS AG, priority 2024, published 2025)
Blank lines part the entries; values can stand above or below the molecule they belong to.

Key:
[1] = biological target: T1, human DLL3 expressed on HEK293T-huDLL3 cells (Homo sapiens, UniProt Q9NYJ7); experiment: Cell binding titration on HEK293T-hDLL3 cells; assay type: cell-based; conditions: absence of human serum albumin, read-out: Cell binding EC50, w/o HSA
T1 construct: expressed in transfected cells; host or cells: HEK293T-hDLL3
T1 sequence (Q9NYJ7 27-618): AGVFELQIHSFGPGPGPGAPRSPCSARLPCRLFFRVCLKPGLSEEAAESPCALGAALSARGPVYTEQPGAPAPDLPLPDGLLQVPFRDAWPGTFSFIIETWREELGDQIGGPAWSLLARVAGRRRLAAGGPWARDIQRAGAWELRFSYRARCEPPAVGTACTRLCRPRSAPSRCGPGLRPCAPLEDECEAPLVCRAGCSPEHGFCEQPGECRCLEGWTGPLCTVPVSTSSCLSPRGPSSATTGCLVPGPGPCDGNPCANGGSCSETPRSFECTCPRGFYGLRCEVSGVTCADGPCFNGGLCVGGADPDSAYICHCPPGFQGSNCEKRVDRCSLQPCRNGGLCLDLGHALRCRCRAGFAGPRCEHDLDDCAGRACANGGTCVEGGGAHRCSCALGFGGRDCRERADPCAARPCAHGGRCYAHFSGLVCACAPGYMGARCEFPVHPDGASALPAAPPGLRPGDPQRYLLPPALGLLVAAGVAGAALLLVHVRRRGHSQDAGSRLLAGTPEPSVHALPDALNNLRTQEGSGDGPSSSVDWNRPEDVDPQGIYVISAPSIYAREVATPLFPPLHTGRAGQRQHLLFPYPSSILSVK
Description: Cell binding titration assays were performed for selected His-tagged single domain (1 D) and two domain (2D) designed ankyrin repeat proteins to determine binding to human DLL3 expressed on HEK293T-huDLL3 cells in absence and presence of human serum albumin. Controls included Rova antibody as a positive control and a non-binding DARPin comprising SEQ ID NO: 21 as a negative control. HEK293T-hDLL3 cells are HEK293T cells that were stably transfected to express human DLL3 on their surface.
In brief, 1×10^5 cells/well were resuspended in 100 μl DARPin dilution (500 nM, 1:5 serial diluted) and incubated for 1 h at 4° C. Cells were washed twice with PBS and resuspended in 100 μl anti-DARPin antibody (rabbit anti-DARPin 1.4.8) and LIVE/DEAD fixable cell stain (1:1000, Thermo Fisher #L34957). This step was performed in absence and presence of […] Human Serum Albumin (CSL Behring #150570). After incubation and washing, cells were incubated with detection antibody for 30 minutes (Goat anti-Human IgG (H+L), AF647, Thermo Fisher #21445). Cells were fixed (Paraformaldehyde Solution, LucernaChem) and acquired at Attune N×T (Thermo Life Technologies). Raw fcs files were exported and analyzed using FlowJo software. MFI values of live AF647-positive cells were exported from FlowJo and plotted using GraphPad Prism software. None of the tested ankyrin repeat proteins show binding to the HEK293T wildtype cells.

[2] = Pharmacokinetic analysis in WT BALBc mice (serum, ELISA); assay type: in vivo, mouse
From the text: The pharmacokinetic (PK) properties of lead-labelled DARPin (MAM160, MAM279, MAM282, MAM283) conjugates were investigated in mice, including to determine the terminal half-life (or serum half-life) of these conjugates.
In brief, DARPins MAM279, MAM283, MAM160 and MAM282 were conjugated to the chelator DOTAM, via a C-terminal Cysteine containing tag and a connector, as described in Example 3. The conjugates were then labelled with natural lead (Pb). The protein components of the conjugates corresponded to SEQ ID NOs: 15 to 18, respectively. These lead-labelled DARPin conjugates were injected i.v. at 1 mg/kg into WT BALBc mice. Serum was collected 2 min, 10 min, 30 min, 1 h, 4 h, 24 h, 48 h, and 72 h post-injection. DARPins were detected and measured by ELISA. The data were expressed as the DARPin concentration in serum (nmol/L).
In brief, lead-labelled MAM279 conjugate, as described in Example 13, was injected i. at 0.1 mg/kg or at 1 mg/kg into the tail vein of WT BALBc mice. Serum was collected 2 min, 10 min, 30 min, 1 h, 4 h, 24 h, 48 h, and 72 h post-injection for MAM279 conjugate injected at 1 mg/kg, and 2 min, 30 min, 4 h, 24 h, 30 h, 48 h, 72 h, 96 h, and 168 h post-injection for MAM279 conjugate injected at 0.1 mg/kg. DARPins were detected and measured by ELISA. The data were expressed as the DARPin concentration in serum (nmol/L).
In brief, natural lead-labelled MAM279 conjugate, as described in Example 13, was injected i.v. at different doses (0.001 mg/kg, 0.01 mg/kg, 0.1 mg/kg, or 1 mg/kg) into the tail vein of WT BALBc mice. Similarly, unconjugated Rova was injected iv. at 1 mg/kg into the tail vein of WT BALBc mice. Serum was collected 2 min, 10 min, 30 min, 1 h, 4 h, 24 h, 48 h, and 72 h post-injection for MAM279 conjugate injected at 1 mg/kg, and 2 min, 30 min, 4 h, 24 h, 30 h, 48 h, 72 h, 96 h, and 168 h post-injection for MAM279 conjugate injected at 0.1 mg/kg, 0.01 mg/kg and 0.001 mg/kg. Serum was collected 2 min, 30 min, 4 h, 24 h, 30 h, 48 h, 72 h, 96 h, and 168 h post-injection for Rova antibody injected at 1 mg/kg. DARPins and Rova were detected and measured by ELISA. Rova PK characteristics were calculated with time points between 4 h and 168 h and MAM279 conjugate PK characteristics were calculated with time points between 4 h and 72 h. The data were expressed as the DARPin or Rova concentration in serum (nmol/L). Results are shown in FIGS. 19A and 19B and Table 22.

[3] = natural lead-labelled DOTAM conjugate 1 mg/kg i.v., Tables 16, 17
[4] = 1 mg/kg i.v., MAM279 natural lead-labelled conjugate (time points 4-72 h), Rova unconjugated (4-168 h), Table 22
[5] = 1 mg/kg i.v., MAM279 natural lead-labelled conjugate, Rova unconjugated, Table 22

EC50 [1]: 18.9 nM
B1: MAM160: Two domain (2D) ankyrin repeat protein: serum albumin-specific domain (SEQ ID NO: 7), PT linker, DLL3-specific domain MAM120 (protein)
chain: DLGKKLLEAARAGQDDEVRELLKAGADVNAKDYFSHTPLHLAARNGHLKIVEVLLKAGADVNAKDFAGKTPLHLAADAGHLEIVEVLLKAGADVNAQDIFGKTPADIAADAGHEDIAEVLQKAAGSPTPTPTTPTPTPTTPTPTPTGSDLGTKLLSAAADGQDDEVRELLQAGADVNAKDLFGYTPLHLAAWRGHLEIVEVLLEAGADVNAKDAAGLTPLHLAAWFGHLEIVEVLLEAGADVNAQDVQGVTPADLAAKEGHEDIAEVLQQAA
modifications: Ankyrin repeat protein (MAM160)
AUCINF_pred [2, 3]: 4.5873 µM·h
AUC_% Back_Ext_pred [2, 3]: 1%
AUC_% Extrap_pred [2, 3]: 0%
AUClast [2, 3]: 4578.7 nmol·h/L
CI_pred [2, 3]: 7.4 mL/h/kg
Cmax [2, 3]: 625 nM
HL_Lambda_z [2, 3]: 8.3 h
Tmax [2, 3]: 1.98 min
Vss_pred [2, 3]: 0.060 L/kg

EC50 [1]: 0.1 nM
B2: Rova: Rova antibody, DLL3-binding benchmark antibody used as positive control and comparison (antibody, chains of the INN, looked up, V domains shown)
VH: QVQLVQSGAEVKKPGASVKVSCKASGYTFTNYGMNWVRQAPGQGLEWMGWINTYTGEPTYADDFKGRVTMTTDTSTSTAYMELRSLRSDDTAVYYCARIGDSSPSDYWGQGTLVTVSS
VL: EIVMTQSPATLSVSPGERATLSCKASQSVSNDVVWYQQKPGQAPRLLIYYASNRYTGIPARFSGSGSGTEFTLTISSLQSEDFAVYYCQQDYTSPWTFGQGTKLEIK
serum half-life ([2]; 1 mg/kg i.v.): about 145 hours
AUCINF_pre [2, 4]: 11.9183 µM·h
AUClast [2, 4]: 6636.1 h*hr*nmol/L
HL_Lambda_z [2, 4]: 145.8 h
AUC_%Back_Ext_pre [2, 5]: 0%
AUC_%Extrap_Pred [2, 5]: 44%
Cl_pred [2, 5]: 0.6 mL/h/kg
Cmax [2, 5]: 130 nM
Tmax [2, 5]: 1.98 min
Vss_pred [2, 5]: 0.12 L/kg
